Residue numbers refer to the chain shown, from its start.
B1: Y-Aib-EGT-αMeF(2F)-TSD-4Pal-SI-αMeL-LD-Orn-K((2-[2-(2-Amino-ethoxy)-ethoxy]-acetyl)2-(γ-Glu)-CO-(CH2)12-CO2H)AQ-Aib-EFI-(D-Glu)-αMeY-LIEGGP S SGAPPP … (peptide)
peptide: YXEGTXTSDXSIXLDXKAQXEFIXXLIEGGPSSGAPPPSK
modifications: Aib2, αMeF(2F)6, 4Pal10, αMeL13, Orn16, Aib20, D-Glu24, αMeY25; acylated K17, K40 (groups as in name); C-terminal amide
B2: Y-Aib-EGT-αMeF(2F)-TSD-4Pal-SI-αMeL-LD-Orn-K((2-[2-(2-Amino-ethoxy)-ethoxy]-acetyl)-(γ-Glu)-(4-(4-tert-butylphenyl)butanoyl))AQ-Aib-EFI-(D-Glu)-αMeY-LIEGGPSSGAP … (peptide)
peptide: B1 peptide
modifications: Aib2, αMeF(2F)6, 4Pal10, αMeL13, Orn16, Aib20, D-Glu24, αMeY25; acylated K17, K40 (groups as in name); C-terminal amide
B3: Y-Aib-EGT-αMeF(2F)-TSD-4Pal-SI-αMeL-LD-Orn-IAQ-Aib-K((2-[2-(2-Amino-ethoxy)-ethoxy]-acetyl)2-(γ-Glu)-CO-(CH2)12-CO2H)FI-(D-Glu)-αMeY-LIEGGPSSGAPPPSK((2-[2-(2-Am … (peptide)
peptide: B1 peptide with K17I, E21K
modifications: Aib2, αMeF(2F)6, 4Pal10, αMeL13, Orn16, Aib20, D-Glu24, αMeY25; acylated K21, K40 (groups as in name); C-terminal amide
B4: Y-Aib-EGT-αMeF(2F)-TSD-4Pal-SI-αMeL-LD-Orn-K((2-[2-(2-Amino-ethoxy)-ethoxy]-acetyl)2-(γ-Glu)-CO-(CH2)14-CH3)AQ-Aib-EFI-(D-Glu)-αMeY-LIEGGPSSGAPPPSK((2-[2-(2-Ami … (peptide)
peptide: B1 peptide
modifications: Aib2, αMeF(2F)6, 4Pal10, αMeL13, Orn16, Aib20, D-Glu24, αMeY25; acylated K17, K40 (groups as in name); C-terminal amide
B5: Y-Aib-EGT-αMeF(2F)-TSD-4Pal-SI-αMeL-LD-Orn-IAQ-Aib-K((2-[2-(2-Amino-ethoxy)-ethoxy]-acetyl)2-CO-(CH2)12-CO2H)FI-(D-Glu)-αMeY-LIEGGPSSGAPPP … (peptide)
peptide: B1 peptide with K17I, E21K
modifications: Aib2, αMeF(2F)6, 4Pal10, αMeL13, Orn16, Aib20, D-Glu24, αMeY25; acylated K21, K40 (groups as in name); C-terminal amide
B6: Y-Aib-EGT-αMeF(2F)-TSD-4Pal-SI-αMeL-LD-Orn-K((2-[2-(2-Amino-ethoxy)-ethoxy]-acetyl)2-(γ-Glu)-(4-(4-tert-butylphenyl)butanoyl))AQ-Aib-EFI-(D-Glu)-αMeY-LIEGGPSSGA … (peptide)
peptide: B1 peptide
modifications: Aib2, αMeF(2F)6, 4Pal10, αMeL13, Orn16, Aib20, D-Glu24, αMeY25; acylated K17, K40 (groups as in name); C-terminal amide
B7: Y-Aib-EGT-αMeF(2F)-TSD-4Pal-SI-αMeL-LD-Orn-IAQ-Aib-K((2-[2-(2-Amino-ethoxy)-ethoxy]-acetyl)2-(γ-Glu)-(4-(4-tert-butylphenyl)butanoyl))FI-(D-Glu)-αMeY-LIEGGPSSGA … (peptide)
peptide: B1 peptide with K17I, E21K
modifications: Aib2, αMeF(2F)6, 4Pal10, αMeL13, Orn16, Aib20, D-Glu24, αMeY25; acylated K21, K40 (groups as in name); C-terminal amide
B8: Y-Aib-EGT-αMeF(2F)-TSD-4Pal-SI-αMeL-LD-Orn-K((2-[2-(2-Amino-ethoxy)-ethoxy]-acetyl)2-(γ-Glu)-CO-(CH2)10-CH3)AQ-Aib-EFI-(D-Glu)-αMeY-LIEGGP S SGAPPP … (peptide)
peptide: B1 peptide
modifications: Aib2, αMeF(2F)6, 4Pal10, αMeL13, Orn16, Aib20, D-Glu24, αMeY25; acylated K17, K40 (groups as in name); C-terminal amide
B9: Y-Aib-EGT-αMeF(2F)-TSD-4Pal-SI-αMeL-LD-Orn-K((2-[2-(2-Amino-ethoxy)-ethoxy]-acetyl)-(γ-Glu)-(10-(4-carboxyphenoxy)decanoyl))AQ-Aib-EFI-(D-Glu)-αMeY-LIEGGK((2-[2 … (peptide)
peptide: YXEGTXTSDXSIXLDXKAQXEFIXXLIEGGKSSGAPPPS
modifications: Aib2, αMeF(2F)6, 4Pal10, αMeL13, Orn16, Aib20, D-Glu24, αMeY25; acylated K17, K31 (groups as in name); C-terminal amide
B10: Y-Aib-EGT-αMeF(2F)-TSD-4Pal-SI-αMeL-LD-Orn-K((2-[2-(2-Amino-ethoxy)-ethoxy]-acetyl)2-CO-(CH2)12-CO2H)AQ-Aib-EFI-(D-Glu)-αMeY-LIK((2-[2-(2-Amino-ethoxy)-ethoxy]- … (peptide)
peptide: B9 peptide with E28K, K31P
modifications: Aib2, αMeF(2F)6, 4Pal10, αMeL13, Orn16, Aib20, D-Glu24, αMeY25; acylated K17, K28 (groups as in name); C-terminal amide
B11: Y-Aib-EGT-αMeF(2F)-TSD-4Pal-SI-αMeL-LD-Orn-K((2-[2-(2-Amino-ethoxy)-ethoxy]-acetyl)2-(γ-Glu)-CO-(CH2)14-CH3)AQ-Aib-EFIK((2-[2-(2-Amino-ethoxy)-ethoxy]-acetyl)2- … (peptide)
peptide: B9 peptide with X24K, K31P
modifications: Aib2, αMeF(2F)6, 4Pal10, αMeL13, Orn16, Aib20, αMeY25; acylated K17, K24 (groups as in name); C-terminal amide
B12: Y-Aib-EGT-αMeF(2F)-TSD-4Pal-SI-αMeL-LD-Orn-K((2-[2-(2-Amino-ethoxy)-ethoxy]-acetyl)-(γ-Glu)-(2-[2-(2-Amino-ethoxy)-ethoxy]-acetyl)-CO-(CH2)12-CO2H)AQ-Aib-EFI-(D … (peptide)
peptide: B9 peptide
modifications: Aib2, αMeF(2F)6, 4Pal10, αMeL13, Orn16, Aib20, D-Glu24, αMeY25; acylated K17, K31 (groups as in name); C-terminal amide
B13: Y-Aib-EGT-αMeF(2F)-TSD-4Pal-SI-αMeL-LD-Orn-IAQ-Aib-K((2-[2-(2-Amino-ethoxy)-ethoxy]-acetyl)2-(γ-Glu)-(4-(4-tert-butylphenyl)butanoyl))FI-(D-Glu)-αMeY-LIK((2-[2- … (peptide)
peptide: B9 peptide with K17I, E21K, E28K, K31P
modifications: Aib2, αMeF(2F)6, 4Pal10, αMeL13, Orn16, Aib20, D-Glu24, αMeY25; acylated K21, K28 (groups as in name); C-terminal amide
B14: Y-Aib-EGT-αMeF(2F)-TSD-4Pal-SI-αMeL-LD-Orn-K((2-[2-(2-Amino-ethoxy)-ethoxy]-acetyl)2-(γ-Glu)-CO-(CH2)12-CO2H)AQ-Aib-K((2-[2-(2-Amino-ethoxy)-ethoxy]-acetyl)2-(γ … (peptide)
peptide: B9 peptide with E21K, K31P
modifications: Aib2, αMeF(2F)6, 4Pal10, αMeL13, Orn16, Aib20, D-Glu24, αMeY25; acylated K17, K21 (groups as in name); C-terminal amide
B15: Y-Aib-EGT-αMeF(2F)-TSD-4Pal-SI-αMeL-LD-Orn-K((2-[2-(2-Amino-ethoxy)-ethoxy]-acetyl)-(y-Glu)-CO-(CH2)12-CO2H)AQ-Aib-K((2-[2-(2-Amino-ethoxy)-ethoxy]-acetyl)-(γ-G … (peptide)
peptide: B9 peptide with E21K, K31P
modifications: Aib2, αMeF(2F)6, 4Pal10, αMeL13, Orn16, Aib20, D-Glu24, αMeY25; acylated K17, K21 (groups as in name); C-terminal amide
B16: Y-Aib-EGT-αMeF(2F)-TSD-4Pal-SI-αMeL-LD-Orn-K((2-[2-(2-Amino-ethoxy)-ethoxy]-acetyl)2-(γ-Glu)-CO-(CH2)14-CH3)AQ-Aib-K((2-[2-(2-Amino-ethoxy)-ethoxy]-acetyl)2-(γ- … (peptide)
peptide: B9 peptide with E21K, K31P
modifications: Aib2, αMeF(2F)6, 4Pal10, αMeL13, Orn16, Aib20, D-Glu24, αMeY25; acylated K17, K21 (groups as in name); C-terminal amide
B17: Y-Aib-EGT-αMeF(2F)-TSD-4Pal-SI-αMeL-LD-Orn-K((2-[2-(2-Amino-ethoxy)-ethoxy]-acetyl)2-CO-(CH2)12-CO2H)AQ-Aib-K((2-[2-(2-Amino-ethoxy)-ethoxy]-acetyl)2-CO-(CH2)12 … (peptide)
peptide: B9 peptide with E21K, K31P
modifications: Aib2, αMeF(2F)6, 4Pal10, αMeL13, Orn16, Aib20, D-Glu24, αMeY25; acylated K17, K21 (groups as in name); C-terminal amide
B18: Y-Aib-EGT-αMeF(2F)-TSDK((2-[2-(2-Amino-ethoxy)-ethoxy]-acetyl)2-(γ-Glu)-CO-(CH2)12-CO2H)SI-αMeL-LD-Orn-K((2-[2-(2-Amino-ethoxy)-ethoxy]-acetyl)2-(γ-Glu)-CO-(CH2 … (peptide)
peptide: B9 peptide with X10K, K31P
modifications: Aib2, αMeF(2F)6, αMeL13, Orn16, Aib20, D-Glu24, αMeY25; acylated K10, K17 (groups as in name); C-terminal amide
B19: Y-Aib-EGT-αMeF(2F)-TSD-4Pal-SI-αMeL-LD-Orn-K((2-[2-(2-Amino-ethoxy)-ethoxy]-acetyl)2-(γ-Glu)-CO-(CH2)12-CO2H)AQ-Aib-EFI-(D-Glu)-αMeY-LIK((2-[2-(2-Amino-ethoxy)- … (peptide)
peptide: B9 peptide with E28K, K31P
modifications: Aib2, αMeF(2F)6, 4Pal10, αMeL13, Orn16, Aib20, D-Glu24, αMeY25; acylated K17, K28 (groups as in name); C-terminal amide
B20: Y-Aib-EGT-αMeF-TSD-4Pal-SI-αMeL-LD-Orn-K((2-[2-(2-Amino-ethoxy)-ethoxy]-acetyl)2-(γ-Glu)-CO-(CH2)10-CH3)AQ-Aib-EFI-(D-Glu)-αMeY-LIEGGK((2-[2-(2-Amino-ethoxy)-et … (peptide)
peptide: B9 peptide
modifications: Aib2, αMeF6, 4Pal10, αMeL13, Orn16, Aib20, D-Glu24, αMeY25; acylated K17, K31 (groups as in name); C-terminal amide
B21: Y-Aib-EGT-αMeF(2F)-TSD-4Pal-SI-αMeL-LD-Orn-K((εK)-(εK)-(γ-Glu)-CO-(CH2)12-CO2H)AQ-Aib-EFI-(D-Glu)-αMeY-LIEGGK((εK)-(εK)-(γ-Glu)-CO-(CH2)12-CO2H)SSGAPPPS-NH2 (peptide)
peptide: B9 peptide
modifications: Aib2, αMeF(2F)6, 4Pal10, αMeL13, Orn16, Aib20, D-Glu24, αMeY25; acylated K17, K31 (groups as in name); C-terminal amide
B22: Y-Aib-EGT-αMeF(2F)-TSD-4Pal-SI-αMeL-LD-Orn-K((2-[2-(2-Amino-ethoxy)-ethoxy]-acetyl)-(γ-Glu)-CO-(CH2)10-CH3)AQ-Aib-EFI-(D-Glu)-αMeY-LIEGGK((2-[2-(2-Amino-ethoxy) … (peptide)
peptide: B9 peptide
modifications: Aib2, αMeF(2F)6, 4Pal10, αMeL13, Orn16, Aib20, D-Glu24, αMeY25; acylated K17, K31 (groups as in name); C-terminal amide
B23: Y-Aib-EGT-αMeF(2F)-TSD-4Pal-SI-αMeL-LD-Orn-K((2-[2-(2-Amino-ethoxy)-ethoxy]-acetyl)-(γ-Glu)-CO-(CH2)14-CH3)AQ-Aib-EFI-(D-Glu)-αMeY-LIEGGK((2-[2-(2-Amino-ethoxy) … (peptide)
peptide: B9 peptide
modifications: Aib2, αMeF(2F)6, 4Pal10, αMeL13, Orn16, Aib20, D-Glu24, αMeY25; acylated K17, K31 (groups as in name); C-terminal amide

Target: human glucagon receptor (human, UniProt P47871 26-477)
Test: cell-based or functional assay

Binder | cAMP EC50 (1.0% HSA)
B1 | > 9.95 µM
B2 | > 9.95 µM
B3 | > 9.95 µM
B4 | > 9.95 µM
B5 | > 9.95 µM
B6 | > 9.95 µM
B7 | > 9.95 µM
B8 | > 9.95 µM
B9 | > 9.95 µM
B10 | > 9.95 µM
B11 | > 9.95 µM
B12 | > 9.95 µM
B13 | > 9.95 µM
B14 | > 9.95 µM
B15 | > 9.95 µM
B16 | > 9.95 µM
B17 | > 9.95 µM
B18 | > 9.95 µM
B19 | > 9.95 µM
B20 | > 9.95 µM
B21 | > 9.95 µM
B22 | > 9.95 µM
B23 | > 9.95 µM
